The values that follow are results of earlier work, collected in PMC12513479.

For data set [1], the target named is IFNAR2 (Homo sapiens) (UniProt P48551).
Data set [2] deals with IFNAR1 (Homo sapiens) (UniProt P17181).
Sequence of UniProt P17181 (P17181 28-436): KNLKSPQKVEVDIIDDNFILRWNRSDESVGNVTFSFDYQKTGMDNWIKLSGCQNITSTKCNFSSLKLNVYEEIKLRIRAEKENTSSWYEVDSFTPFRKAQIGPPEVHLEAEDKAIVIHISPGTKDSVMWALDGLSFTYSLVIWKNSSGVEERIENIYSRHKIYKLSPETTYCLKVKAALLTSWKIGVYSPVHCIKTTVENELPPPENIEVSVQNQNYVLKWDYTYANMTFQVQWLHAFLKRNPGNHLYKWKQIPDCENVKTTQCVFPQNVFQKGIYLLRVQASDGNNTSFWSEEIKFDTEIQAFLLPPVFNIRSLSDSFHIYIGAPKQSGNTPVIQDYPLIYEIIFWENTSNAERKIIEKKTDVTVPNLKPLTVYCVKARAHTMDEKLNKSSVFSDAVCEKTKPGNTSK

Sequence of UniProt P48551 (P48551 27-243): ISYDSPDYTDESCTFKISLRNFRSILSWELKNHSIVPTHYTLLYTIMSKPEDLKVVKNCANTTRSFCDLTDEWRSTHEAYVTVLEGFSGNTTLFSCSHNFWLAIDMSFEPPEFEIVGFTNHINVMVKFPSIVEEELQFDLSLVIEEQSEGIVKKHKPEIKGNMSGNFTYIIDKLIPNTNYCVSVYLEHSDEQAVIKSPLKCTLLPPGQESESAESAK

For the substance IFN-β (from UniProt P01574), the figures for the dissociation constant Kd in data set [1] and in data set [2] were 0.1 nM and 100 nM, respectively.

The Kd is the equilibrium constant for the complex coming apart.
